Experimental data reported in the DeepSol protein solubility set.

test: soluble on expression in E. coli; label from the status in PepcDB or PDB records

Sequence | soluble on expression in E. coli
STERRRDELSEEINNLREKVMKQSEENNNLQSQVQKLTEENTTLREQVEPTPEDEDDDIELRGAAAAAAPPPPIEEECPEDLPEKFDGNPDMLAPFMAQCQIFMEKSTRDFSVDRVRVCFVTSMMTGRAARWASAKLERSHYLMHNYPAFMMEMKHVFEDPQRREVAKRKIRRLRQGMGSVIDYSNAFQMIAQDLDWNEPALIDQYHEGLSDHIQEELSHLEVAKSLSALIGQCIHIERRLARAAAARKPRSPPRALVLPHIASHHQVDPTEPVGGARMRLTQEEKERRRKLNLCLYCGTGGHYADNCPAKASKSSPAGNSPAPL | soluble
STGKAKPKKHTAKELQAKADAALTNRGGGKAGLADRTGKEKGGHAKYECPHCKITVPDLKTMQIHHESKHPKLTYEEPRNLHEALAAPAESSKPKPGIRGSLKK | soluble
STNAEAVTVTNKQIIFPDYVTGFPKESDLKITTTTIDLRLPEGSTSVLVKNLYLSCDPYMRICMGKPDPLSSSLVPPYKTGVPIIGLGVSKVIDSGHPDYKKGDLLWGLVGWEEYSVITLTTYSHFKIEHTDVPLSYYTGLLGMPGMTAYAGFYEVCSPKKGETVFVSAASGAVGQLVGQFAKLMGCYVVGSAGSKEKVYLLKTKFGFDDAFNYKEEKDFSAALKRYFPEGIDIYFENVGGKMLDAVLINMKLHGRVAVCGMISQYNLVDPEGVHNLPTILYKRIQLQGFGVCDFYDKYPKFLDFVLPYIREGKITYVEDIAEGFESGPSALLGLFEGKNVGKQLFVVARE | soluble
STSCVAEEPIKKIAIFGGTHGNELTGVFLVTHWLKNGAEVHRAGLEVKPFITNPRAVEKCTRYIDCDLNRVFDLENLSKEMSEDLPYEVRRAQEINHLFGPKNSDDAYDVVFDLHNTTSNMGCTLILGDSGNDFLIQMFHYIKTCMAPLPCSVYLIEHPSLKYATTRSIAKYPVGIEVGPQPHGVLRADILDQMRRMLKHALDFIQRFNEGKEFPPCAIDVYKIMEKVDYPRNESGDVAAVIHPNLQDQDWKPLHPGDPVFVSLDGKVIPLGGDCTVYPVFVNEAAYYEKKEAFAKTTKLTLNAKSIRSTLH | soluble
STSTSGLTARISQTLFTSNSFVEEVASILQHWDTGLEASKRRIQDAKEKNSTVLDLQQLELSNEIFNELWPSIREIRNLKYLNLFLNRLTELPSDFGALSTLETLNLACNPLQSVPDSFSDLAMLRELDLGFTSTLCTVPEIFEKMTQLKVLYAGNNRLEKLPESVISLQCLEELHLYGNALNALPENIGNLKSLRLLNVGRNNLSSLPNSIGSLSSLEVLYLYENDLSSLPRSMKDLSKLRVLGLDGNPSLSSLPEHIKEPNAKAVAAYYAEME | soluble
STTGLVTPGDVIGKATEFKAGKGAYVNDATIYASLTGTCRIVSPLPESIDQRAIVEVTGHKAHGPIPETGSVVIARVTKVMTKMAAVDILCVGSKAVRENFAGVIRQQDVRATEIDKVDMHQSFHAGDIVRAMVLSLGDARAYYLSTAKNELGVVSAESAAGETMVPISWTEMQCPLSGQTEQRKVAKVGN | soluble
SVIRELNKNWQSHAFDGFEVNWTEQQQMVSCLYTLGYPPAQAQGLHVTSISWNSTGSVVACAYGRLDHGDWSTLKSFVCAWNLDRRDLRPQQPSAVVEVPSAVLCLAFHPTQPSHVAGGLYSGEVLVWDLSRLEDPLLWRTGLTDDTHTDPVSQVVWLPEPGHSHRFQVLSVATDGKVLLWQGIGVGQLQLTEGFALVMQQLPRSTKLKKHPRGETEVGATAVAFSSFDPRLFILGTEGGFPLKCSLAAGEAALTRMPSSVPLRAPAQFTFSPHGGPIYSVSCSPFHRNLFLSAGTDGHVHLYSMLQAPPLTSLQLSLKYLFAVRWSPVRPLVFAAASGKGDVQLFDLQKSSQKPTVLIKQTQDESPVYCLEFNSQQTQLLAAGDAQGTVKVWQLSTEFTEQGPREAEDLDCLAAEVAA | soluble
SVKVVIEADGGSRGNPGPAGYGAVVWTADHSTVLAESKQAIGRATNNVAEYRGLIAGLDDAVKLGATEAAVLMDSKLVVEQMSGRWKVKHPDLLKLYVQAQALASQFRRINYEWVPRARNTYADRLANDAMDAAAQSAAAD | soluble
SVLVLDDRIVDAATKDLYVNGFQEEIQYQNPTPENLQHMFHQGIEILDSARMINVTHLALWKPSSFKLGNPVDFALDDNYDTFWQSDGGQPHQLDIMFSKRMDICVMAIFFSMIADESYAPSLVKVYAGHSPSDARFYKMLEVRNVNGWVALRFLDNREDDQLLKCQFIRLLFPVNHENGKDTHLRGIRLYVPSNEPHQDTHEWAQTLPETNNVFQDAILR | soluble
SVNAATVDLRIMETTDLHSNMMDFDYYKDAATEKFGLVRTASLIEQARAEVKNSVLVDNGDVIQGSPLGDYMAAKGLKEGDVHPVYKAMNTLNYAVGNLGNHEFNYGLDFLHKALAGAKFPYVNANIIDAKTGKPMFTPYLIQDTRVVDSDGQIHTLRIGYIGFVPPQIMTWDKANLNGKVTVNDITETARKYIPEMRAKGADVVVVVAHSGLSADPYQAMAENSVYYLSQVPGVDAIMFGHAHAVFPGKDFANIKGADIAKGTLNGVPAVMPGMWGDHLGVVDLVLNNDSGKWQVTQSKAEARPIYDAVAKKSLAAEDGKLVSVLKADHDATREFVSK | soluble
SVNYYKVLGVPRNASSSDIKRAFHQLALQVHPDKNPGDKEAAEEKFKQVAEAYHILSDAKKRKDYDRSRWNRNKGEIRGDGHDKGETIRVNDSRDETDWEEKICSRRPRHTFQKVTEDEDLFSGDCLFSGPITGSRRASSPFFTVTPIMDTGFSTFVSHESRSYSDDPETFVPYISQGMGKFRLVTTCSKTVNGKRVVTKRVVENIRGPKKIENERLFRHNPSRGWKLMENPCS | soluble
SVREANIKQATAEKQLKEAQGKIDVLQAEVAALKTLVLSSSPTSPTQEPLPGGKTPFKKGHTRNKSTSSAMSGSHQDLSVIQPIVKDCKEADLSLYNEFRLWKDEPTMDRTCPFLDKIYQEDIFPCLTFSKSELASAVLEAVENNTLSIEPVGLQPIRFVKASAVECGGPKKCALTGQSKSCKHRIKLGDSSNYYYISPFCRYRITSVCNFFTYIRYIQQGLVKQQDVDQMFWEVMQLRKEMSLAKLGYFKEEL | soluble
SVTDNNGAVKFPQLCKFCDVRFSTCDNQKSCMSNCSITSICEKPQEVCVAVWRKNDENITLETVCHDPKLPYHDFILEDAASPKCIMKEKKKPGETFFMCSCSSDECNDNIIFSEEYNTSNPD | soluble
SVYTYFSAVAGQDGEVDAEELQRCLTQSGINGTYSPFSLETCRIMIAMLDRDHTGKMGFNAFKELWAALNAWKENFMTVDQDGSGTVEHHELRQAIGLMGYRLSPQTLTTIVKRYSKNGRIFFDDYVACCVKLRALTDFFRKRDHLQQGSANFIYDDFLQGTMAI | soluble
TAAVALVKANENAAAILNLKNAIQKTNAAVADVVQATQSLGTAVQAVQDHINSVVSPAITAANY | soluble
TDKVTDADLETLRKLQEEFATELAISRGRVDALEARSADIQAQQFSPNVVLGGQTIFGLAGGFGGNRPGDGEANTIFTYLTQLQLASSFTGKDRFRVGLISGNAANNSFENLQAFNTNMARLAWQGNYDNQVSINSVEYRVAGLGDRVVFTFKPVGFSLGSVLSPNSIYADAGQGAISAFAGSTPILRIGNLDAGLGFDWLLSDEIRLQFAYGTRGSSDSNQGLFGADHSALGLQFLYKPTPSLITGLAYINAYSSDGHLDTGTGSSNADTSGGINEPSQIHALNASMRWQLTNKLVLGAWGGVMVTDSLKSDAVVLSSTYTVSLGIYDPFGRKGDLFGFLYGLPPKLNNGVLIPTADTGNSTHYEVFYRYLVNDNIAITPGFFLVTDPGHISSNNDIFIGAIRTTFNF | not soluble
TDVATVVSQAKAQMKEAYYTYSHTVTETGQFPDIKDVYAAYNKAKQAYANAVAVVNKAGGAKKDAYLADLQAIYETYVFKANPKSGEARVATYIDAYNYATKLDKMRQELKAAVDAKDLKKAEELYHKISYELKTRTVILDRVYGQSTRELLRSTFKADAQALRDRLIYDITVAMKAREAQDAVKAGNLDKAKAALDQVNQYVSKVTDAFKAELQKAAQDAKAAYEAALTPKVESVSAIDSTSFKVTFTKPVDKATAIPKNFSITLKGTETKLYPKSVEVSESGLTATVTLYDTLVDGKTYTVVTSGLKDTAGKEFETSTNEFTYNKPVPASITFNFNKLPEDSAVDLTKYVTVKDAAGNVIKSGFELEFTSSEKLTQGKFINTTGKKSVIVNATVKGTNVTTGNVILAVED | soluble
TEPPGVIIVGESEFSFHLGINLRDHGIPVMMFNLFENTSEKAHEAGFEVFKGNLLSSNDRIYSDLLRYNKCILMTQSFIFNSLAFNELVPEFGLNNVDMMPVSFNDEQARNNLNGPIRNHILFDENHTPRWFNQFITQHNIVEVPAEDYEKITEN | not soluble
TEQKQKHMEQLSDKNGIISALAFDQRGALKRLMAKYQSEEPTVSQIEALKVLVAEELTPYASSMLLDPEYGLPATKVLDDNAGLLLAYEKTGYDTSSTKRLPDCLDIWSAKRIKEEGADAVKFLLYYDVDSSDEVNEEKEAYIERIGSECVAEDIPFFLEILSYDEKITDSSGIEYAKIKPRKVIEAMKVFSNPRFNIDVLKVEVPVNMDYVEGFAQGETAYNKATAAAYFREQDQATLLPYIFLSAGVPAQLFQETLVFAKEAGAKFNGVLCGRATWAGSVKEYVEKGEAGARQWLRTIGFQNIDELNKILQKTATSWKE | soluble
TESVYITTPYLIIDYDLTETIKNAAMRGVDVRIITPYIPDKKFIQLVTRGAYPDLLSAGVRIYEYSPGFIHSKQMLVDEDFAVVGTINLDYRSLVHHYENAVLLYKTPSIREIARDFRNIFADSQEVYPHSIKT | not soluble
TIDAQLQKRAEQAFGDQAGAAVVMEVNTGEILAFVSNPEFDPALFAGRMPPEIWKQYLEDKRHPLENKALKGQYPPGSTYKIITALAGLEEGIIDDHTTVTCKGSYALGNTTFRCWDKKGHGAVDLRRALRESCDVYFYVLGEKLGIDRLSAYAQKFALGAPMGVGLDNEKGGLIPTSAWKLQRHKTRWFQGDTLSAAIGQGYVLMTPIQLASMTAAIATDGIVYRPRLVKRIIDRDGKVLREFQPEIITRADISPRSFKSVKEGLWAVVNESGGTGGMSRIPDVRVAGKTGTSQVVKLRDTRGFIPYQYRDHALFVAYAPYEHPEVAVAVVIEHGEHGGSAAAPIAGSILRAYFEGKGVIRR | not soluble
TIKNFTFFSPNSTEFPVGSNNDGKLYMMLTGMDYRTIRRKDWSSPLNTALNVQYTNTSIIAGGRYFELLNETVALKGDSVNYIHANIDLTQTANPVSLSAETANNSNGVDINNGSGVLKVCFDIVTTSGTGVTSTKPIVQTSTLDSISVNDMTVSGSIDVPVQTLTVEAGNGLQLQLTKKNNDLVIVRFFGSVSNIQKGWNMSGTWVDRPFRPAAVQSLVGHFAGRDTSFHIDINPNGSITWWGANIDKTPIATRGNGSYFIKSAW | soluble
TKAVHTKHAPAAIGPYSQGIIVNNMFYSSGQIPLTPSGEMVNGDIKEQTHQVFSNLKAVLEEAGASFETVVKATVFIADMEQFAEVNEVYGQYFDTHKPARSCVEVARLPKDALVEIEVIALVK | soluble
TKDFGYSFNANYATNTNEVKALGPGNAPIISTGSVDHAYYITKVGEPIGCYYLLVQDGIFSNEEELKKYPHFSNTQPGDFRFVDVDGDGVMDLDKDRTIVGNYMPDFTYGFGGKVWYKGIDLDFNFQGVYGNEILNLNRRYIDNLEGNTNGTTIALNRWKSADNPGNGQVNRANRKSKGYNGRTSTWHLEDGSYLRLQNVTLGYTLPQNLTRRFFVEKLRVYVSGQNLWTSTNYGGYNPEVNARPSNSLSPGEDYGTYPLAKTFLFGLNITL | not soluble
